Substitutions are numbered along the chain they refer to. Names and notes keep the numbering of the source.
B1: recombinant human TNFβ (ligand, UniProt P01374 35-205, looked up)
chain: LPGVGLTPSAAQTARQHPKMHLAHSTLKPAAHLIGDPSKQNSLLWRANTDRAFLQDGFSLSNNSLLVPTSGIYFVYSQVVFSGKAYSPKATSSPLYLAHEVQLFSSQYPFHVPLLSSQKMVYPGLQEPWLHSMYHGAAFQLTQGDQLSTHTDGIPHLVLSPSTVFFGAFAL
B2: 17-22-B03-sc08 (scFv)
scFv: MDIQMTQSPSSLSASVGDRVTITCQASQSISSYLAWYQQKPGKAPKLLIYKASTLASGVPSRFSGSGSGTDFTLTISSLQPEDFATYYCQCTYYEPSYVFRAFGGGTKLTVLGGGGGSGGGGSGGGGSGGGGSEVQLVESGGGLVQPGGSLRLSCKASGIDFSAGYDMCWVRQAPGKGLEWIACIDSRREESDYASWAKGRFTISKDSSKNTVYLQMNSLRAEDTAVYYCARGGYGGDGVDGAFDPWGQGTLVTVSS
notes: Humanized scFv, CDR-grafted light chain and structural-grafted heavy chain (CDR/STR); also called 17-22-B03-sc08 (CDR/STR); domain shuffled variant
B3: 17-22-B03-sc02 (scFv)
scFv: B2 scFv with T23K, D71E, S78D, Q80E, E82A
notes: Humanized scFv, structural graft (STR); also called 17-22-B03-sc02 (STR); structural graft
B4: 17-22-B03-sc12 (scFv)
scFv: B2 scFv with C91S
notes: Humanized scFv, CDR(C90S)/STR design; also called 17-22-B03-sc12 (CDR(C90S)/STR)

Assays:
[1] = target: B2; assay: competition ELISA, coated scFv, biotinylated TNFα (75 ng/mL), unlabeled TNFβ varied
Experimental: (§1) For this purpose, the scFvs were coated on a 96-well Maxisorp ELISA plate at a concentration of 1 μg/mL. […] To control precision of the response, the dose-response curves were analyzed in duplicate.

[2] = target: B3; assay: as above
Experimental: as §1

[3] = target: B4; assay: as above
Experimental: as §1

[4] = target: T1, recombinant human TNFα (human, UniProt P01375 77-233); assay: cell-based or functional assay
[5] = target: T2, Rhesus monkey TNFα (Rhesus monkey (Macaca mulatta), UniProt P48094 77-233); assay: cell-based or functional assay
[6] = target: T3, recombinant Cynomolgus monkey TNFα (Cynomolgus monkey (Macaca fascicularis), UniProt P79337 77-233); assay: cell-based or functional assay
[7] = target: T1, recombinant human TNFα; assay: inhibition ELISA, biotinylated human TNFα (960 pM) on coated TNFRII-Fc, scFv varied
Experimental: (§2) For the first inhibition ELISA, the extracellular domain of TNFRI fused to the Fc region of human IgG (R&D Systems, Cat. No. 372-RI) was coated on a 96-well Maxisorp ELISA at a concentration of 0.5 μg/mL. For the second inhibition ELISA, the extracellular domain of TNFRII fused to the Fc region of human IgG (R&D Systems, Cat. No. 726-R2) was coated at a concentration of 2 μg/mL. All subsequent steps were identical for both assays.

[8] = target: T1, recombinant human TNFα; assay: inhibition ELISA, biotinylated human TNFα (960 pM) on coated TNFRI-Fc, scFv varied
Experimental: as §2

[9] = target: T1, recombinant human TNFα; assay: SPR (MASS-1), TNFα immobilised by amine coupling, scFv injected 45 to 1.4 nM
Experimental: (§3) In a second step, for the best performing scFvs, Single Injection Cycle Kinetics (SiCK) were measured from a single injection cycle by simultaneously injecting six analyte samples at different concentrations into each of the eight parallel channels in the MASS-1 system. […] The apparent dissociation (kd) and association (kₐ) rate constants and the apparent dissociation equilibrium constant (KD) were calculated with the MASS-1 analysis software (Analyzer, Sierra Sensors) using one-to-one Langmuir binding model and quality of the fits was monitored based on Chi², which is a measure for the quality of the curve fitting. The smaller the value for the Chi² the more accurate is the fitting to the one-to-one Langmuir binding model. For affinity screenings, results were deemed valid if the Chi² was below 10 for the concentration analyzed. In cases where several scFv concentrations were analyzed, results were deemed valid if the average Chi^t over all the concentrations tested was below 10.

[10] = target: B1; assay: competition ELISA, coated scFv, biotinylated TNFα, unlabeled TNFβ or TNFα as competitor
Experimental: as §1

[11] = target: T2, Rhesus monkey TNFα; assay: SPR, TNFα immobilised, scFv injected
[12] = target: T2, Rhesus monkey TNFα; assay: SPR (MASS-1), TNFα immobilised by amine coupling, scFv injected 45 to 1.4 nM
Experimental: as §3

[13] = target: T3, recombinant Cynomolgus monkey TNFα; assay: as above
Experimental: as §3

[14] = target: T1, recombinant human TNFα; assay: inhibition ELISA: biotinylated human TNFα pre-incubated with the scFv, binding to coated TNFRI-Fc detected with streptavidin-HRP [panel 17-22-B03-sc12]
Experimental: as §2

[15] = target: T1, recombinant human TNFα; assay: inhibition ELISA: biotinylated human TNFα pre-incubated with the scFv, binding to coated TNFRII-Fc detected with streptavidin-HRP [panel 17-22-B03-sc12]
Experimental: as §2

T1 sequence (P01375 77-233 limits assumed): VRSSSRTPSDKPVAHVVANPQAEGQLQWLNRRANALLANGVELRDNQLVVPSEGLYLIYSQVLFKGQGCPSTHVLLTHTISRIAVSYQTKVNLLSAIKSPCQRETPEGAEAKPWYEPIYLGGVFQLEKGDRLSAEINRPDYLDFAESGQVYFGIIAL
T2 sequence (P48094 77-233 limits assumed): as the sequence (P01375 77-233 limits assumed) above, with R44T, T72N, R138L counted along it
T3 sequence (P79337 77-233 limits assumed): as the sequence (P01375 77-233 limits assumed) above, with L37V, R44T, T72N, R138L counted along it

Row | Binder | Potency (L929 assay), rel. IC50 (IC50 Infliximab/IC50 scFv, ng/mL) [4] [ratio] | Potency (L929 assay), rel. IC90 (IC90 Infliximab/IC90 scFv, ng/mL) [4] [ratio] | Species-specificity IC50 [ng/mL], L929 assay, human TNFα [4] [ng/mL] | Species-specificity IC50 [ng/mL], L929 assay, rhesus TNFα [5] [ng/mL] | Species-specificity IC50 [ng/mL], L929 assay, cyno TNFα [6] [ng/mL] | IC50 [7] [µg/mL] | rel. IC50 (IC50 Infliximab/IC50 scFv), blocking of TNF-TNFRII interaction [7] [ratio] | rel. IC90 (IC90 Infliximab/IC90 scFv), blocking of TNF-TNFRII interaction [7] [ratio] | IC50 [8] [µg/mL] | rel. IC50 (IC50 Infliximab/IC50 scFv), blocking of TNF-TNFRI interaction [8] [ratio] | rel. IC90 (IC90 Infliximab/IC90 scFv), blocking of TNF-TNFRI interaction [8] [ratio] | Kd [9] [nM] | koff [9] [s⁻¹] | kon [9] [M⁻¹ s⁻¹] | Target selectivity, rel. IC50 of TNFβ vs TNFα [10] [fold] | Kd [12] [nM] | koff [12] [s⁻¹] | kon [12] [M⁻¹ s⁻¹] | Kd [13] [nM] | koff [13] [s⁻¹] | further results
1 | B1 | – | – | – | – | – | – | – | – | – | – | – | – | – | – | – | – | – | – | – | – | IC50 [1]: > 1250 µg/mL; IC50 [2]: > 1250 µg/mL; IC50 [3]: > 1250 µg/mL
2 | B2 | 26 | 26.6 | 0.4 | 0.4 | 0.5 | 0.0353 | 2.8 | 2.7 | 0.0212 | 2.3 | 2.5 | 0.061 | 6.8e-05 | 1.1e+06 | > 10000 | – | – | – | – | – | –
3 | B3 | 23.7 | 29.4 | 0.5 | 0.3 | 0.6 | 0.0711 | 1.4 | 1.8 | 0.0334 | 1.5 | 1.4 | 0.052 | 5.9e-05 | 1.1e+06 | > 10000 | 0.15 | 0.00011 | 710000 | 0.05 | 6e-05 | fold difference in affinity against human TNFα [11]: ~3 fold; kon [13]: 1.2e+06 M⁻¹ s⁻¹
4 | B4 | 13.4 | 11.7 | 0.6 | 0.9 | 0.8 | – | 2.1 | – | – | 1.5 | – | 0.048 | 4e-05 | 830000 | > 10000 | 0.24 | 0.0002 | 830000 | 0.07 | 5.2e-05 | IC50 (read off the curve) [14]: ~0.03 µg/mL; IC50 (read off the curve) [15]: ~0.03 µg/mL; kon [13]: 750000 M⁻¹ s⁻¹

From patent US20200299375A1 (TILLOTTS PHARMA, published 2020)
